Assay in all cases: AlphaScreen, peptide titrated on biotinylated HLA + b2m
Test [1] deals with biotinylated HLA-C*07:02 with β2m (human, biotinylated). On the procedure:
(§1) An AlphaScreen® assay was used to evaluate the binding of peptides to HLA molecules. Donor beads conjugated with streptavidin, and acceptor beads conjugated with the anti-human HLA class I antibody W6/32, were used to assess peptide binding. Biotinylated HLAs (A*02:01, B*07:02, C*07:01, or C*07:02) were mixed with a fixed excess of β2m and the mixtures added to each well of a 384-well microplate. Serial dilutions of the synthesized phosphopeptides were added to the wells, and the resultant HLA/β2/peptide mixtures were incubated overnight at 18° C. W6/32 conjugated acceptor beads were subsequently added to the wells, and the mixture was incubated for 1 hour at 21° C. Streptavidin conjugated donor beads were then added to the wells, and the mixture was incubated for a further 1 hour at 21° C.
(§2) The microplate was read using the PerkinElmer® plate reader, and data were plotted using the Michaelis-Menten equation to determine the Kd for each phosphopeptide.

Test [2] addresses T1, biotinylated HLA-B*07:02 with β2m (human, biotinylated).
T1 construct: also called B*07:02 (as the text prints it)
As for the experimental part: as §1, §2

Test [3] addresses T2, biotinylated HLA-A*02:01 with β2m (human, biotinylated).
T2 construct: HLA heavy chain mixed with excess β2m; the peptide is titrated onto it
As for the experimental part: as §1, §2

Test [4] concerns the target biotinylated HLA-C*07:01 with β2m (human, biotinylated). As for the experimental part: as §1, §2

Square brackets hold non-standard residues; d marks the D form. Ends that are not written are not given here. pY = N[C@@H](Cc1ccc(OP(=O)(O)O)cc1)C(=O)O; pT = C[C@@H](OP(=O)(O)O)[C@H](N)C(=O)O; pS = N[C@@H](COP(=O)(O)O)C(=O)O

With SISS[pT]PPAV [SISStPPAV], the binding result in test [1], in test [2] and in test [4] was “no binding” throughout. The Kd (in general, the free concentration of one partner at which half of the binding sites on the other are occupied at equilibrium, for simple one-to-one binding) in test [3] was found to be 169 nM.

B1: RLLsAAENFL (peptide)
peptide: RLL[pS]AAENFL-OH
modifications: N-terminus assumed
SMILES: CC(C)C[C@H](NC(=O)[C@H](Cc1ccccc1)NC(=O)[C@H](CC(N)=O)NC(=O)[C@H](CCC(=O)O)NC(=O)[C@H](C)NC(=O)[C@H](C)NC(=O)[C@H](COP(=O)(O)O)NC(=O)[C@H](CC(C)C)NC(=O)[C@H](CC(C)C)NC(=O)[C@@H](N)CCCNC(=N)N)C(=O)O
For B1, the Kd in test [3] worked out at 114 nM.

As for SMS[pS]LSREV [SMSsLSREV], the binding result in test [1], in test [2] and in test [4] was “no binding” throughout. Further, the Kd in test [3] stood at 927 nM.

SLQ[pS]LETSV [SLQsLETSV]: the binding result in test [1], in test [2] and in test [4] was “no binding” throughout. For the same molecule, in test [3], the Kd came to 121 nM.

On to AVRPTRL[pS]L [AVRPTRLsL], for which the Kd in test [2] came to 117 nM. Besides, in test [3], the binding result is recorded as “no binding”.

Turning to SLF[pS]GDEENA [SLFsGDEENA], the binding result in test [1], in test [2] and in test [4] was “no binding” throughout. The dissociation constant Kd in test [3] was found to be 278 nM.

With SLHDIQL[pS]L [SLHDIQLsL], the Kd in test [1] came out at 413 nM; in test [2] it was 642 nM; in test [3], 31.9 nM; in test [4], 962 nM.

In the case of SIS[pS]MEVNV [SISsMEVNV], the binding result in test [1], in test [2] and in test [4] was “no binding” in each case. Further, the Kd in test [3] stood at 306 nM.

For the molecule RPR[pS]PTGPSNSFL [RPRsPTGPSNSFL], the Kd in test [2] came out at 360 nM. In addition, the binding result in test [3] is recorded as “no binding”.

Regarding [pY]LQSRYYRA [yLQSRYYRA], the Kd in test [3] is 255 nM. Moreover, the binding result in test [4] is reported as “no binding”.

Turning to RRL[pS]FLVSY [RRLsFLVSY], the figures for the Kd in test [1] and in test [4] were 113 nM and 1570 nM, respectively.

As to KIK[pS]FEVVF [KIKsFEVVF], the binding result in test [2] is listed as “no binding”.

With RIYQ[pY]IQSR [RIYQyIQSR], the binding result in test [3] was “no binding”.

Turning to SPFKRQL[pS]L [SPFKRQLsL], the Kd in test [2] turned out to be 64.7 nM.

Turning to RPDVAKRL[pS]L [RPDVAKRLsL], the Kd in test [2] was 216 nM.

As to YRY[pS]PQSFL [YRYsPQSFL], the binding result in test [2] and in test [3] was “no binding” throughout.

SVKPRRT[pS]L [SVKPRRTsL]: the binding result in test [1], in test [3] and in test [4] was “no binding” in each case.

For RRP[pS]LLSEF [RRPsLLSEF], the Kd came to 35.7 nM in test [1] and 804 nM in test [4].

On to SLF[pS]SEESNL [SLFsSEESNL], for which the binding result in test [1], in test [2] and in test [4] was “no binding” in each case. Further, the Kd in test [3] worked out at 466 nM.

With RPRPV[pS]PSSLL [RPRPVsPSSLL], the Kd in test [2] came out at 186 nM.

Take RLL[pS]FQRYL [RLLsFQRYL]: the binding result in test [2] is “no binding”. The Kd in test [3] was 49.7 nM.

As for LPRPA[pS]PAL [LPRPAsPAL], the Kd in test [2] is 223 nM. The binding result in test [3] is on record as “no binding”.

On to RPRIP[pS]PIGF [RPRIPsPIGF], for which, in test [2], the Kd worked out at 84.4 nM. Further, in test [3], the binding result is “no binding”.

Take LPA[pS]PRARL [LPAsPRARL]: the Kd in test [2] turned out to be 83.5 nM.

On to FRR[pS]PTKSSLDY [FRRsPTKSSLDY], for which, in test [1], the Kd is 98.6 nM.

As to RRG[pS]FEVTL [RRGsFEVTL], the Kd in test [1] came to 15.9 nM; in test [4], 16.6 nM. Further, in test [2], the binding result is on record as “no binding”.

In the case of RRI[pS]DPQVF [RRIsDPQVF], the Kd in test [1] worked out at 19.9 nM; in test [4], 11.4 nM. Besides, in test [2], the binding result is on record as “no binding”.

Turning to RPF[pS]PREAL [RPFsPREAL], in test [2], the Kd stood at 163 nM.

With RPY[pS]PPFFSL [RPYsPPFFSL], the Kd in test [2] came to 157 nM.

With RRF[pS]GTAVY [RRFsGTAVY], the dissociation constant Kd in test [1] came to 16.7 nM; in test [4] it was 2180 nM. The binding result in test [2] is on record as “no binding”.

With RIYQ[pY]IQSRF [RIYQyIQSRF], the values for the equilibrium dissociation constant (Kd) in test [1] and in test [4] were 377 nM and 477 nM, respectively.

Take RPK[pT]PPVVI [RPKtPPVVI]: the binding result in test [3] is on record as “no binding”.

SPA[pS]PKISL [SPAsPKISL]: in test [2], the Kd was found to be 275 nM.

Turning to KRF[pS]GTVRL [KRFsGTVRL], in test [2], the binding result is given as “no binding”.

SLF[pS]SEESNLGA [SLFsSEESNLGA]: the binding result in test [1], in test [2] and in test [4] was “no binding” each time. In addition, the dissociation constant (Kd) in test [3] stood at 149 nM.

Take RLS[pS]PLHFV [RLSsPLHFV]: in test [3], the Kd stood at 90.6 nM.

Regarding TVF[pS]PTLPAA [TVFsPTLPAA], the binding result in test [1], in test [2] and in test [4] was “no binding” each time. In addition, in test [3], the Kd came to 46.9 nM.

As to RPR[pS]ISVEEF [RPRsISVEEF], in test [2], the Kd is 86.1 nM.

In the case of RPAFF[pS]PSL [RPAFFsPSL], in test [2], the Kd is 398 nM. For the same molecule, the binding result in test [3] is reported as “no binding”.

On to SIM[pS]PEIQL [SIMsPEIQL], for which the binding result in test [2] is recorded as “no binding”. Moreover, the Kd in test [3] was 84 nM.

Consider RRS[pS]FLQVF [RRSsFLQVF], for which, in test [1], the Kd came to 19 nM. Further, the binding result in test [2] is “no binding”.

In the case of VLFS[pS]PPQM [VLFSsPPQM], the binding result in test [1] and in test [2] was “no binding” throughout. Also, in test [3], the equilibrium dissociation constant (Kd) came out at 227 nM.

As to SLF[pS]PQNTL [SLFsPQNTL], the dissociation constant (Kd) in test [3] is 116 nM.

The values are drawn from patent US20220275049A1 (AGENUS, published 2022).
